For assay [1], the target named is C5a receptor C5aR (CD88) on human blood neutrophils (human) (UniProt P21730). Kind of assay: cell-based or functional assay.
For assay [2] the target is unchanged. The assay can be described thus: cell-based or functional assay. This is another data set of the same source.

Where two headings read alike, the source gives them in different places.

Sequence of C5a receptor C5aR (CD88) on human blood neutrophils (human) (P21730 whole entry): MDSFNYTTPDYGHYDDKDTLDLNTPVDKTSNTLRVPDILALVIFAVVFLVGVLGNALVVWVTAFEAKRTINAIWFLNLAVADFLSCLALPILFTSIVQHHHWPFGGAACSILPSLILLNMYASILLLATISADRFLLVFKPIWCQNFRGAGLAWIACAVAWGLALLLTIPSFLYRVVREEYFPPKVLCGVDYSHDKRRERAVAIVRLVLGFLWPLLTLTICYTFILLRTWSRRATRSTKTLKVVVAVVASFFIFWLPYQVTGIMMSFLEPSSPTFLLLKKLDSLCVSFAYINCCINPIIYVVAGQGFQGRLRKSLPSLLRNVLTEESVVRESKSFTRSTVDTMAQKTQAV

“recombinant human C5a (from UniProt P01031 678-751) (ligand)”: the CD11b (mean MFI) on blood neutrophils; huPP|rhC5a (20 nM), no blocker in assay [1] amounted to 8330 MFI; in assay [2] it was 6330 MFI.
Regarding anti-C5aR (CD88) antibody Clone 7H110, in assay [2], the Blocking activity (%) on CD11b upregulation; Pat. 088|Clone 7H110 (50 nM) stood at 75.7%, the Blocking activity (%) on CD11b upregulation; Pat. 092|Clone 7H110 (50 nM) came to 78.7%, the Blocking activity (%) on CD11b upregulation; huPP|rhC5a|Clone 7H110 (50 nM) amounted to 70.7% and the CD11b (mean MFI); Pat. 088|Clone 7H110 (50 nM) is 3560 MFI. In assay [2], the CD11b (mean MFI); Pat. 092|Clone 7H110 (50 nM) worked out at 3390 MFI and the CD11b (mean MFI); huPP|rhC5a|Clone 7H110 (50 nM) came to 3380 MFI.
Turning to anti-C5aR (CD88) antibody Clone S5/1, in assay [2], the Blocking activity (%) on CD11b upregulation; Pat. 088|Clone S5/1 (50 nM) amounted to 72.7%, the Blocking activity (%) on CD11b upregulation; Pat. 092|Clone S5/1 (50 nM) worked out at 75.9%, the Blocking activity (%) on CD11b upregulation; huPP|rhC5a|Clone S5/1 (50 nM) stood at 73% and the CD11b (mean MFI); Pat. 088|Clone S5/1 (50 nM) worked out at 3740 MFI. Also, in assay [2], the CD11b (mean MFI); Pat. 092|Clone S5/1 (50 nM) was determined as 3560 MFI and the CD11b (mean MFI); huPP|rhC5a|Clone S5/1 (50 nM) amounted to 3290 MFI.
For the substance PMX-53 (peptide), in assay [1], the Blocking activity (%) on CD11b upregulation; Pat. 088|PMX 53 (20 µM) is 104%, the Blocking activity (%) on CD11b upregulation; Pat. 092|PMX 53 (20 µM) came to 109%, the Blocking activity (%) on CD11b upregulation; huPP|rhC5a|PMX 53 (20 µM) is 108% and the CD11b (mean MFI); Pat. 088|PMX 53 (20 µM) stood at 2030 MFI. Besides, in assay [1], the CD11b (mean MFI); Pat. 092|PMX 53 (20 µM) was found to be 1910 MFI and the CD11b (mean MFI); huPP|rhC5a|PMX 53 (20 µM) turned out to be 1850 MFI. In assay [2], this substance showed a Blocking activity (%) on CD11b upregulation; Pat. 088|PMX 53 (50 nM) of 55.5%, a Blocking activity (%) on CD11b upregulation; Pat. 092|PMX 53 (50 nM) of 56.7%, a Blocking activity (%) on CD11b upregulation; huPP|rhC5a|PMX 53 (50 nM) of 50.3% and a CD11b (mean MFI); Pat. 088|PMX 53 (50 nM) of 4730 MFI. Also, in assay [2], the CD11b (mean MFI); Pat. 092|PMX 53 (50 nM) amounted to 4660 MFI and the CD11b (mean MFI); huPP|rhC5a|PMX 53 (50 nM) was found to be 4240 MFI.

The values above are taken from patent publication US20180282425A1.
